B1: RAS guanyl-releasing protein 1, residues 539 to 593; numbered along this chain, O95267 (parent)
chain: GFPHNFQETTYLKPTFCDNCAGFLWGVIKQGYRCKDCGMNCHKQCKDLVVFECKK

± gives the uncertainty stated by the source.

In the data set the parent is B1. The data set is described as follows: abundance fitness (aPCA) (normalised: wild type 0, dead -1); higher = more abundant; growth selection in yeast, the domain comes from the species named. As to conditions: Homo sapiens.
In the case of GFPHNFQETTYLKPTFCDNCAGFGWGVIKQGYRCKDCGMNCHKQCKDLVVFECKK, the abundance fitness was -0.48 ± 0.083. The same measure for GFPHNFQETTYLKPTFCDNCAGFSWGVIKQGYRCKDCGMNCHKQCKDLVVFECKK: -0.325 ± 0.071.

In the case of GFPHNFQETTYLKPTFCDNCAGFHWGVIKQGYRCKDCGMNCHKQCKDLVVFECKK, the abundance fitness is -0.465 ± 0.22.

As for GFPHNFQETTYLKPTFCDNCAGFAWGVIKQGYRCKDCGMNCHKQCKDLVVFECKK, the abundance fitness was -0.396 ± 0.096. The same measure for GFPHNFQETTYLKPTFCDNCAGFMWGVIKQGYRCKDCGMNCHKQCKDLVVFECKK: 0.248 ± 0.11. Then GFPHNFQETTYLKPTFCDNCAGFIWGVIKQGYRCKDCGMNCHKQCKDLVVFECKK, with -0.049 ± 0.077; and GFPHNFQETTYLKPTFCDNCAGFFWGVIKQGYRCKDCGMNCHKQCKDLVVFECKK, with -0.006 ± 0.064. The same measure for GFPHNFQETTYLKPTFCDNCAGFPWGVIKQGYRCKDCGMNCHKQCKDLVVFECKK: -0.612 ± 0.2; for GFPHNFQETTYLKPTFCDNCAGFQWGVIKQGYRCKDCGMNCHKQCKDLVVFECKK: -0.424 ± 0.13; for GFPHNFQETTYLKPTFCDNCAGFEWGVIKQGYRCKDCGMNCHKQCKDLVVFECKK: -0.369 ± 0.13. Consider GFPHNFQETTYLKPTFCDNCAGFVWGVIKQGYRCKDCGMNCHKQCKDLVVFECKK, for which the abundance fitness was -0.241 ± 0.098. In the case of GFPHNFQETTYLKPTFCDNCAGFDWGVIKQGYRCKDCGMNCHKQCKDLVVFECKK, the abundance fitness was -0.709 ± 0.31. The same measure for GFPHNFQETTYLKPTFCDNCAGFNWGVIKQGYRCKDCGMNCHKQCKDLVVFECKK: -0.303 ± 0.06; for GFPHNFQETTYLKPTFCDNCAGFRWGVIKQGYRCKDCGMNCHKQCKDLVVFECKK: -0.375 ± 0.049. Then GFPHNFQETTYLKPTFCDNCAGFYWGVIKQGYRCKDCGMNCHKQCKDLVVFECKK, with -0.623 ± 0.1; and GFPHNFQETTYLKPTFCDNCAGFCWGVIKQGYRCKDCGMNCHKQCKDLVVFECKK, with -0.118 ± 0.11. Take GFPHNFQETTYLKPTFCDNCAGFTWGVIKQGYRCKDCGMNCHKQCKDLVVFECKK: the abundance fitness is -0.279 ± 0.11. GFPHNFQETTYLKPTFCDNCAGFKWGVIKQGYRCKDCGMNCHKQCKDLVVFECKK: the abundance fitness is -0.333 ± 0.1. Then GFPHNFQETTYLKPTFCDNCAGFWWGVIKQGYRCKDCGMNCHKQCKDLVVFECKK, with -0.617 ± 0.054; and GFPHNFQETTYLKPTFCDNWAGFLWGVIKQGYRCKDCGMNCHKQCKDLVVFECKK, with -0.827 ± 0.45.

For the variant GFPHNFQETTYLKPTFCDNRAGFLWGVIKQGYRCKDCGMNCHKQCKDLVVFECKK, the abundance fitness is -0.74 ± 0.22. The same measure for GFPHNFQETTYLKPTFCDNMAGFLWGVIKQGYRCKDCGMNCHKQCKDLVVFECKK: -1.05 ± 0.17. The same measure for GFPHNFQETTYLKPTFCDNVAGFLWGVIKQGYRCKDCGMNCHKQCKDLVVFECKK: -1.13 ± 0.19; for GFPHNFQETTYLKPTFCDNLAGFLWGVIKQGYRCKDCGMNCHKQCKDLVVFECKK: -0.974 ± 0.21. The same measure for GFPHNFQETTYLKPTFCDNTAGFLWGVIKQGYRCKDCGMNCHKQCKDLVVFECKK: -1.05 ± 0.15. Regarding GFPHNFQETTYLKPTFCDNHAGFLWGVIKQGYRCKDCGMNCHKQCKDLVVFECKK, the abundance fitness was -0.695 ± 0.34.

Turning to GFPHNFQETTYLKPTFCDNSAGFLWGVIKQGYRCKDCGMNCHKQCKDLVVFECKK, the abundance fitness was -1.24 ± 0.4. Then GFPHNFQETTYLKPTFCDNNAGFLWGVIKQGYRCKDCGMNCHKQCKDLVVFECKK, with -1.29 ± 0.39; and GFPHNFQETTYLKPTFCDNQAGFLWGVIKQGYRCKDCGMNCHKQCKDLVVFECKK, with -1.01 ± 0.21. The same measure for GFPHNFQETTYLKPTFCDNCAGFLNGVIKQGYRCKDCGMNCHKQCKDLVVFECKK: -0.377 ± 0.17; for GFPHNFQETTYLKPTFCDNCAGFLPGVIKQGYRCKDCGMNCHKQCKDLVVFECKK: -0.07 ± 0.11; for GFPHNFQETTYLKPTFCDNCAGFLQGVIKQGYRCKDCGMNCHKQCKDLVVFECKK: -0.128 ± 0.074.

As for GFPHNFQETTYLKPTFCDNCAGFLRGVIKQGYRCKDCGMNCHKQCKDLVVFECKK, the abundance fitness was -0.217 ± 0.067.

For GFPHNFQETTYLKPTFCDNCAGFLEGVIKQGYRCKDCGMNCHKQCKDLVVFECKK, the abundance fitness was -0.047 ± 0.093. As for GFPHNFQETTYLKPTFCDNCAGFLIGVIKQGYRCKDCGMNCHKQCKDLVVFECKK, the abundance fitness is -0.038 ± 0.14. The same measure for GFPHNFQETTYLKPTFCDNCAGFLGGVIKQGYRCKDCGMNCHKQCKDLVVFECKK: -0.425 ± 0.076. The same measure for GFPHNFQETTYLKPTFCDNCAGFLKGVIKQGYRCKDCGMNCHKQCKDLVVFECKK: -0.206 ± 0.074; for GFPHNFQETTYLKPTFCDNCAGFLAGVIKQGYRCKDCGMNCHKQCKDLVVFECKK: -0.148 ± 0.078; for GFPHNFQETTYLKPTFCDNCAGFLDGVIKQGYRCKDCGMNCHKQCKDLVVFECKK: -0.121 ± 0.15. Regarding GFPHNFQETTYLKPTFCDNCAGFLTGVIKQGYRCKDCGMNCHKQCKDLVVFECKK, the abundance fitness came to 0.157 ± 0.1.

Turning to GFPHNFQETTYLKPTFCDNCAGFLVGVIKQGYRCKDCGMNCHKQCKDLVVFECKK, the abundance fitness was -0.102 ± 0.05. Then GFPHNFQETTYLKPTFCDNCAGFLSGVIKQGYRCKDCGMNCHKQCKDLVVFECKK, with -0.246 ± 0.097; and GFPHNFQETTYLKPTFCDNCAGFLLGVIKQGYRCKDCGMNCHKQCKDLVVFECKK, with -0.286 ± 0.087; and GFPHNFQETTYLKPTFCDNCAGFLFGVIKQGYRCKDCGMNCHKQCKDLVVFECKK, with -0.143 ± 0.15.

For the variant GFPHNFQETTYLKPTFCDNCAGFLMGVIKQGYRCKDCGMNCHKQCKDLVVFECKK, the abundance fitness is -0.247 ± 0.13. Turning to GFPHNFQETTYLKPTFCDNCAGFLHGVIKQGYRCKDCGMNCHKQCKDLVVFECKK, the abundance fitness is -0.226 ± 0.15.

Regarding GFPHNFQETTYLKPTFCDNCAGFLCGVIKQGYRCKDCGMNCHKQCKDLVVFECKK, the abundance fitness is -0.558 ± 0.17. With GFPHNFQETTYLKPTFCDNCAEFLWGVIKQGYRCKDCGMNCHKQCKDLVVFECKK, the abundance fitness was -0.164 ± 0.14.

(Values after the Human Domainome abundance scans (Beltran et al. 2025).)
